These results are taken from patent US20190077863A1 (AERPIO PHARMACEUTICALS, published 2019).

The Kd is the free concentration of one partner at which half of the binding sites on the other are occupied at equilibrium, for simple one-to-one binding. Read a high Kd as lower affinity. For orientation: koff means the rate constant with which the complex falls apart. A lower koff goes with a long-lived complex. As usually defined, the kon is the second-order rate constant of association.

In assay [1] the target is T1, Human VE-PTP (HPTP-β) containing first eight FN3 repeats with C-terminal His6 tag (Human ½ VE-PTP ECD) (human, UniProt P23467 23-820).
T1 construct: Produced in HEK293 cells and purified by the His tag; it was not cut off; also called Human Beta ½ ECD
T1 sequence: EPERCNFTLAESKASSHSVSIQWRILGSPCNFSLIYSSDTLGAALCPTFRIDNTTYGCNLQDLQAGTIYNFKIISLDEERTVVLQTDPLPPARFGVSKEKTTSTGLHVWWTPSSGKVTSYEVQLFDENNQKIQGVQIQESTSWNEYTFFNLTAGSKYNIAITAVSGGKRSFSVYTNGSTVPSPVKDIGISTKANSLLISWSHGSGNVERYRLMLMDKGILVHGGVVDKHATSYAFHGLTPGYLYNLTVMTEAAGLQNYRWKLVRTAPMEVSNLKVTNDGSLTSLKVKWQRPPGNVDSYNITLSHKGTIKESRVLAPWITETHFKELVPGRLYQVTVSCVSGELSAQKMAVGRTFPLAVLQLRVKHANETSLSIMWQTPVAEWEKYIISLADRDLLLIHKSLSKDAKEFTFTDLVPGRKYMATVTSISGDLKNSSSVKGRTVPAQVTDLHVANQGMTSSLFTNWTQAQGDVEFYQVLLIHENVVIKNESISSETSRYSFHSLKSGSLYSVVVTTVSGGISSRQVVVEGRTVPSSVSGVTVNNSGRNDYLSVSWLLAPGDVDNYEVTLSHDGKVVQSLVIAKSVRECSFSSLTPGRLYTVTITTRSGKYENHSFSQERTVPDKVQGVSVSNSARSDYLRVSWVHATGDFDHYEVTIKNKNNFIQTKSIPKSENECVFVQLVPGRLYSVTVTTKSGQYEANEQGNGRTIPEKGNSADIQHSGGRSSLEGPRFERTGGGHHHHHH
The assay can be described thus: ELISA: HPTP-β antigen coated on the plate, antibody serially diluted (10,000 to 9.765 ng/mL), goat anti-human HRP (Fc specific), OD 450 nm. How it is done:
(§1) Each humanized variant was measured for affinity to the antigen, human VE-PTP (HPTP-β), using ELISA. […] of the VE-PTP (HPTP-β) antigen were immobilized onto 96-well Maxisorp plates in coating buffer (0.5 mM NaHCO₃ brought to pH 9.6 by the addition of 0.5 mM Na₂CO₃) overnight at 4° C. The coating buffer was then removed and 200 μL/well of block solution (3% w/v semi-skimmed milk powder, PBS) was added and agitated for 2 hrs at room temperature. The plate was washed four times with PBS-T (1% v/v Tween 20). 100 μL/well was added of purified R15E6 variants serially diluted from 10,000 ng/mL to 9.765 ng/mL in PBS-TB (0.05% v/v Tween 20, 0.5% w/v BSA). Following agitation for 2 hrs at room temperature, the plate was washed 4× with PBS-T. 100 μL/well goat anti-human HRP (Fc specific) at a ratio of 1:60,000 PBS was then added and the plates were incubated for an additional hour with agitation at room temperature. The plate was then washed 6× with PBS-T and once in PBS. Next, 100 μL/well of TMB substrate solution was added and incubated at 37° C. for 10 min. 50 μL 1 M HCl was added per well and the plate immediately read at 450 nm on a Tecan Sunrise plate reader. […] The binding of the HC4 variants was much lower than with the other heavy chains variants compared to HC0LC0 (FIG. 17).
In general terms: An ELISA detects its analyte on a solid surface through an enzyme-linked reagent.

In assay [2] the target is T1, Human VE-PTP (HPTP-β) containing first …. Nature of the assay: SPR (Biacore 3000), antibody captured on anti-human IgG, antigen as analyte 25-0 nM. How it is done: (§2) Samples of each variant were further assessed by Biacore analysis to determine the binding affinity. Antibody binding experiments were performed on Biacore 3000™ at 25° C. Assay buffer: 10 mM HEPES buffer (pH 7.4), 150 mM NaCl, 3 mM EDTA, 0.05% P20 (polyoxyethylenesorbitan). […] Conjugation buffer: 10 mM sodium acetate buffer (pH 5). The flow rate used for capturing the ligand was 5 μL/min. The flow rate for the kinetic analysis was 50 μL/min. Flow cell 1 and […] of the CM5 chip were coated with maximum amounts of goat anti-human IgG. Approximately 150 RU of the test antibody was captured on flow cell 2, 3, and 4 as indicated. The antigen was flowed over the chip. Binding of the antigen to the antibodies was monitored in real time. The KD was determined from the observed kₒₙ and koff values.
In general terms: Surface plasmon resonance follows binding to a sensor surface in real time, without labels.

The target is the same in assay [3]. Nature of the assay: SPR (Biacore 3000), antibody captured on anti-human IgG, antigen as analyte 100 nM (single concentration). On the procedure: as §2
A scouting analysis was performed using single analyte concentrations as indicated. At these concentrations, binding can be observed even if the ligand binding is weak. Flow cell 1 response was used for reference subtraction.

Assay [4] shares this target. The assay can be described thus: ELISA, coated antigen, antibody 10,000 to 9.765 ng/mL. How it is done:
as §1

Assay [5] shares this target. The assay can be described thus: ELISA: HPTP-β antigen coated on the plate, antibody serially diluted, goat anti-human HRP (Fc specific), OD 450 nm. How it is done: as §1

B1: humanized R15E6 variant HC1LC1 (antibody, human IgG4 S228P, kappa, V domains shown)
VH: EVQLVESGGGLVQPGGSLKLSCAASGFTFNANAMNWVRQASGKGLEWVGRIRTKSNNYATYYAGSVKDRFTISRDDSKNTAYLQMNSLKTEDTAAYYCVRDYYGSSAWITYWGQGTLVTVSS
VL: DVVMTQSPSFLSASVGDRVTITCKASQHVGTAVAWYQQRPGKAPKLLIYWASTRHTGVPSRFSGSGSGTEFTLTISSLQPEDFATYFCQQYSSYPFTFGGGTKLEIKR
notes: Human IgG4 (S228P) / kappa, expressed in CHO cells; Signal peptides left out by range; also called VH1-VL1
Turning to B1, in assay [1], the binding result is given as “binds”.

B2: humanized R15E6 variant HC3LC2 (antibody, human IgG4 S228P, kappa, V domains shown)
VH: EVQLVESGGGLVQPGRSLRLSCTASGFTFNANAMNWVRQAPGKGLEWVGRIRTKSNNYATYYAGSVKDRFTISRDDSKNIAYLQMNSLKTEDTAVYYCVRDYYGSSAWITYWGQGTLVTVSS
VL: DIVMTQSPDSLAVSLGERATINCKASQHVGTAVAWYQQKPGQPPKLLIYWASTRHTGVPDRFSGSGSGTDFTLTISSLQAEDVAVYYCQQYSSYPFTFGQGTKLEIKR
notes: Human IgG4 (S228P) / kappa, expressed in CHO cells; Signal peptides left out by range; also called VH3-VL2
With B2, in assay [2], the Ka is 4.3e+07 M⁻¹; the affinity, expressed as Kd, was 23.2 nM; the off-rate (koff) worked out at 0.00123 s⁻¹; the on-rate constant (kon) is 53900 M⁻¹ s⁻¹. Besides, in assay [3], the Ka is 2.06e+08 M⁻¹, the dissociation constant (Kd) came out at 4.84 nM, the dissociation rate constant (koff) was 0.000993 s⁻¹ and the kon came to 205000 M⁻¹ s⁻¹.

B3: humanized R15E6 variant HC1LC3 (antibody, human IgG4 S228P, kappa, V domains shown)
VH: EVQLVESGGGLVQPGGSLKLSCAASGFTFNANAMNWVRQASGKGLEWVGRIRTKSNNYATYYAGSVKDRFTISRDDSKNTAYLQMNSLKTEDTAAYYCVRDYYGSSAWITYWGQGTLVTVSS
VL: DIQMTQSPFSLSASVGDRVTITCKASQHVGTAVAWYQQKPGKAPKLLIYWASTRHTGVPSRFSGSGSGTDFTLTISSLQPEDFATYFCQQYSSYPFTFGGGTKLEIKR
notes: Human IgG4 (S228P) / kappa, expressed in CHO cells; Signal peptides left out by range; also called VH1-VL3
Take B3: the binding result in assay [1] was “binds”.

B4: humanized R15E6 variant HC4LC1 (antibody, human IgG4 S228P, kappa, V domains shown)
VH: LVQLVESGGGLVKPGGSLRLSCAASGFTFNANAMNWIRQAPGKGLEWVSRIRTKSNNYATYYAGSVKDRFTISRDNAKNSLYLQMNSLRAEDTAVHYCVRDYYGSSAWITYWGQGTLVTVSS
VL: DVVMTQSPSFLSASVGDRVTITCKASQHVGTAVAWYQQRPGKAPKLLIYWASTRHTGVPSRFSGSGSGTEFTLTISSLQPEDFATYFCQQYSSYPFTFGGGTKLEIKR
notes: Human IgG4 (S228P) / kappa, expressed in CHO cells; Signal peptides left out by range; also called VH4-VL1
On to B4, for which the binding result in assay [4] is reported as “binds”.

B5: humanized R15E6 variant HC4LC2 (antibody, human IgG4 S228P, kappa, V domains shown)
VH: LVQLVESGGGLVKPGGSLRLSCAASGFTFNANAMNWIRQAPGKGLEWVSRIRTKSNNYATYYAGSVKDRFTISRDNAKNSLYLQMNSLRAEDTAVHYCVRDYYGSSAWITYWGQGTLVTVSS
VL: DIVMTQSPDSLAVSLGERATINCKASQHVGTAVAWYQQKPGQPPKLLIYWASTRHTGVPDRFSGSGSGTDFTLTISSLQAEDVAVYYCQQYSSYPFTFGQGTKLEIKR
notes: Human IgG4 (S228P) / kappa, expressed in CHO cells; Signal peptides left out by range; also called VH4-VL2
Turning to B5, in assay [4], the binding result is “binds”.

B6: humanized R15E6 variant HC3LC1 (antibody, human IgG4 S228P, kappa, V domains shown)
VH: EVQLVESGGGLVQPGRSLRLSCTASGFTFNANAMNWVRQAPGKGLEWVGRIRTKSNNYATYYAGSVKDRFTISRDDSKNIAYLQMNSLKTEDTAVYYCVRDYYGSSAWITYWGQGTLVTVSS
VL: DVVMTQSPSFLSASVGDRVTITCKASQHVGTAVAWYQQRPGKAPKLLIYWASTRHTGVPSRFSGSGSGTEFTLTISSLQPEDFATYFCQQYSSYPFTFGGGTKLEIKR
notes: Human IgG4 (S228P) / kappa, expressed in CHO cells; Signal peptides left out by range; also called VH3-VL1
On to B6, for which the binding result in assay [5] was “binds”.

B7: humanized R15E6 variant HC4LC4 (antibody, human IgG4 S228P, kappa, V domains shown)
VH: LVQLVESGGGLVKPGGSLRLSCAASGFTFNANAMNWIRQAPGKGLEWVSRIRTKSNNYATYYAGSVKDRFTISRDNAKNSLYLQMNSLRAEDTAVHYCVRDYYGSSAWITYWGQGTLVTVSS
VL: DIVMTQSPDSLAVSLGERATINCKASQHVGTAVAWYQQKPEQPPKLLIYWASTRHTGVPDRFSGSGSGTDFTLTISSLQAEDVAVYYCQQYSSYPFTFGGGTKVEIKR
notes: Human IgG4 (S228P) / kappa, expressed in CHO cells; Signal peptides left out by range; also called VH4-VL4
On to B7, for which the binding result in assay [4] is listed as “binds”.

B8: humanized R15E6 variant HC3LC3 (antibody, human IgG4 S228P, kappa, V domains shown)
VH: EVQLVESGGGLVQPGRSLRLSCTASGFTFNANAMNWVRQAPGKGLEWVGRIRTKSNNYATYYAGSVKDRFTISRDDSKNIAYLQMNSLKTEDTAVYYCVRDYYGSSAWITYWGQGTLVTVSS
VL: DIQMTQSPFSLSASVGDRVTITCKASQHVGTAVAWYQQKPGKAPKLLIYWASTRHTGVPSRFSGSGSGTDFTLTISSLQPEDFATYFCQQYSSYPFTFGGGTKLEIKR
notes: Human IgG4 (S228P) / kappa, expressed in CHO cells; Signal peptides left out by range; also called VH3-VL3
As for B8, the binding result in assay [5] is “binds”.
